According to the supplement of paper PMC5998384:

Assays:
HeLa Kyoto [1] = assay: melting temperature (median over replicates), in situ; higher = more thermally stable
HeLa Kyoto [2] = assay: thermal stability score vs G1/S (z-score of summed log2 fold changes over temperatures); higher = more thermally stable than in G1/S
HeLa Kyoto [3] = assay: solubility change mitosis vs G1/S (difference of NP-40 vs SDS log2 ratios) (log2 ratio difference); higher = more soluble in mitosis
HeLa Kyoto [4] = assay: solubility in G1/S (NP-40 vs SDS abundance) (log2 ratio); higher = more soluble; details: cell cycle stage: G1/S
[5] = cell cycle stage: early G1 (4.5 h after nocodazole release)
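Wherever melting temperature (median over replicates), in situ is given: HeLa Kyoto cells synchronized by double thymidine or nocodazole block, proteins quantified by TMT10plex mass spectrometry, three independent biological replicates.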
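Wherever solubility change mitosis vs G1/S (difference of NP-40 vs SDS log2 ratios) is given: synchronized HeLa Kyoto cells (double thymidine block for G1/S, nocodazole release for mitosis), protein amounts in NP-40 versus SDS lysates quantified by mass spectrometry, three biological replicates.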
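Wherever solubility in G1/S (NP-40 vs SDS abundance) is given: HeLa Kyoto cells arrested at G1/S by double thymidine block, proteins quantified by TMT10plex mass spectrometry in mild NP-40 versus SDS extracts, three biological replicates.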
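Wherever thermal stability score vs G1/S (z-score of summed log2 fold changes over temperatures) is given: synchronized HeLa Kyoto cells, proteins quantified by TMT10plex mass spectrometry, three biological replicates, mitosis taken 0.5 h after nocodazole release, G1/S directly after double thymidine block.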

Substance	melting temperature (HeLa Kyoto [1]; cell cycle stage: G1/S)	melting temperature (HeLa Kyoto [1]; cell cycle stage: mitosis)	thermal stability score (HeLa Kyoto [2]; [5])	thermal stability score (HeLa Kyoto [2]; cell cycle stage: mitosis)	solubility change mitosis (log2) (HeLa Kyoto [3])	solubility in G1/S (log2) (HeLa Kyoto [4])
MAAETQTLNFGPEWLRALSSGGSITSPPLSPALPKYKLADYRYGREEMLALFLKDNKIPSDLLDKEFLPILQEEPLPPLALVPFTEEEQRNFSMSVNSAAVLRLTGRGGGGTVVGAPRGRSSSRGRGRGRGECGFYQRSFDEVEGVFGRGGGREMHRSQSWEERGDRRFEKPGRKDVGRPNFEEGGPTSVGRKHEFIRSESENWRIFREEQNGEDEDGGWRLAGSRRDGERWRPHSPDGPRSAGWREHMERRRRFEFDFRDRDDERGYRRVRSGSGSIDDDRDSLPEWCLEDAEEEMGTFDSSGAFLSLKKVQKEPIPEEQEMDFRPVDEGEECSDSEGSHNEEAKEPDKTNKKEGEKTDRVGVEASEETPQTSSSSARPGTPSDHQSQEASQFERKDEPKTEQTEKAEEETRMENSLPAKVPSRGDEMVADVQQPLSQIPSDTASPLLILPPPVPNPSPTLRPVETPVVGAPGMGSVSTEPDDEEGLKHLEQQAEKMVAYLQDSALDDERLASKLQEHRAKGVSIPLMHEAMQKWYYKDPQGEIQGPFNNQEMAEWFQAGYFTMSLLVKRACDESFQPLGDIMKMWGRVPFSPGPAPPPHMGELDQERLTRQQELTALYQMQHLQYQQFLIQQQYAQVLAQQQKAALSSQQQQQLALLLQQFQTLKMRISDQNIIPSVTRSVSVPDTGSIWELQPTASQPTVWEGGSVWDLPLDTTTPGPALEQLQQLEKAKAAKLEQERREAEMRAKREEEERKRQEELRRQQEEILRRQQEEERKRREEEELARRKQEEALRRQREQEIALRRQREEEERQQQEEALRRLEERRREEEERRKQEELLRKQEEEAAKWAREEEEAQRRLEENRLRMEEEAARLRHEEEERKRKELEVQRQKELMRQRQQQQEALRRLQQQQQQQQLAQMKLPSSSTWGQQSNTTACQSQATLSLAEIQKLEEERERQLREEQRRQQRELMKALQQQQQQQQQKLSGWGNVSKPSGTTKSLLEIQQEEARQMQKQQQQQQQHQQPNRARNNTHSNLHTSIGNSVWGSINTGPPNQWASDLVSSIWSNADTKNSNMGFWDDAVKEVGPRNSTNKNKNNASLSKSVGVSNRQNKKVEEEEKLLKLFQGVNKAQDGFTQWCEQMLHALNTANNLDVPTFVSFLKEVESPYEVHDYIRAYLGDTSEAKEFAKQFLERRAKQKANQQRQQQQLPQQQQQQPPQQPPQQPQQQDSVWGMNHSTLHSVFQTNQSNNQQSNFEAVQSGKKKKKQKMVRADPSLLGFSVNASSERLNMGEIETLDDY [GIGYF2]	49.4 °C	49.8 °C	0.406	0.959	-0.00842	-0.0985
BIRC6	51.6 °C	51.2 °C	-0.354	-0.341	-0.125	-0.141
MTLQWAAVATFLYAEIGLILIFCLPFIPPQRWQKIFSFNVWGKIATFWNKAFLTIIILLIVLFLDAVREVRKYSSVHTIEKSSTSRPDAYEHTQMKLFRSQRNLYISGFSLFFWLVLRRLVTLITQLAKELSNKGVLKTQAENTNKAAKKFMEENEKLKRILKSHGKDEECVLEAENKKLVEDQEKLKTELRKTSDALSKAQNDVMEMKMQSERLSKEYDQLLKEHSELQDRLERGNKKRL [BCAP29]	55.3 °C	52.6 °C	-4.11	-5.19	-0.00377	-0.242
MPEEGSGCSVRRRPYGCVLRAALVPLVAGLVICLVVCIQRFAQAQQQLPLESLGWDVAELQLNHTGPQQDPRLYWQGGPALGRSFLHGPELDKGQLRIHRDGIYMVHIQVTLAICSSTTASRHHPTTLAVGICSPASRSISLLRLSFHQGCTIASQRLTPLARGDTLCTNLTGTLLPSRNTDETFFGVQWVRP [CD70]	54.9 °C	57.1 °C	-2.35	-1.58	-0.0934	0.258
MAGGEDRGDGEPVSVVTVRVQYLEDTDPFACANFPEPRRAPTCSLDGALPLGAQIPAVHRLLGAPLKLEDCALQVSPSGYYLDTELSLEEQREMLEGFYEEISKGRKPTLILRTQLSVRVNAILEKLYSSSGPELRRSLFSLKQIFQEDKDLVPEFVHSEGLSCLIRVGAAADHNYQSYILRALGQLMLFVDGMLGVVAHSDTIQWLYTLCASLSRLVVKTALKLLLVFVEYSENNAPLFIRAVNSVASTTGAPPWANLVSILEEKNGADPELLVYTVTLINKTLAALPDQDSFYDVTDALEQQGMEALVQRHLGTAGTDVDLRTQLVLYENALKLEDGDIEEAPGAGGRRERRKPSSEEGKRSRRSLEGGGCPARAPEPGPTGPASPVGPTSSTGPALLTGPASSPVGPPSGLQASVNLFPTISVAPSADTSSERSIYKARFLENVAAAETEKQVALAQGRAETLAGAMPNEAGGHPDARQLWDSPETAPAARTPQSPAPCVLLRAQRSLAPEPKEPLIPASPKAEPIWELPTRAPRLSIGDLDFSDLGEDEDQDMLNVESVEAGKDIPAPSPPLPLLSGVPPPPPLPPPPPIKGPFPPPPPLPLAAPLPHSVPDSSALPTKRKTVKLFWRELKLAGGHGVSASRFGPCATLWASLDPVSVDTARLEHLFESRAKEVLPSKKAGEGRRTMTTVLDPKRSNAINIGLTTLPPVHVIKAALLNFDEFAVSKDGIEKLLTMMPTEEERQKIEEAQLANPDIPLGPAENFLMTLASIGGLAARLQLWAFKLDYDSMEREIAEPLFDLKVGMEQLVQNATFRCILATLLAVGNFLNGSQSSGFELSYLEKVSEVKDTVRRQSLLHHLCSLVLQTRPESSDLYSEIPALTRCAKVDFEQLTENLGQLERRSRAAEESLRSLAKHELAPALRARLTHFLDQCARRVAMLRIVHRRVCNRFHAFLLYLGYTPQAAREVRIMQFCHTLREFALEYRTCRERVLQQQQKQATYRERNKTRGRMITETEKFSGVAGEAPSNPSVPVAVSSGPGRGDADSHASMKSLLTSRPEDTTHNRRSRGMVQSSSPIMPTVGPSTASPEEPPGSSLPSDTSDEIMDLLVQSVTKSSPRALAARERKRSRGNRKSLRRTLKSGLGDDLVQALGLSKGPGLEV [FHOD1]	48 °C	48.1 °C	1.05	2.72	-0.13	0.185
